Source: US20140223606, “COMPOSITIONS AND METHODS COMPRISING SEQUENCES HAVING MEGANUCLEASE ACTIVITY” (PIONEER HI BRED INTERNATIONAL INC, published 2014)
Positions count from the first letter of the chain named.

How the values were obtained:
Assay in all cases: cell_activity; yeast 30 C; 22 C: 0
Settings in all cases: tags: NLS, 6xHis
LIG3-4(B36) = biological target: T1, LIG3-4(B36) (artificial)
T1 chain: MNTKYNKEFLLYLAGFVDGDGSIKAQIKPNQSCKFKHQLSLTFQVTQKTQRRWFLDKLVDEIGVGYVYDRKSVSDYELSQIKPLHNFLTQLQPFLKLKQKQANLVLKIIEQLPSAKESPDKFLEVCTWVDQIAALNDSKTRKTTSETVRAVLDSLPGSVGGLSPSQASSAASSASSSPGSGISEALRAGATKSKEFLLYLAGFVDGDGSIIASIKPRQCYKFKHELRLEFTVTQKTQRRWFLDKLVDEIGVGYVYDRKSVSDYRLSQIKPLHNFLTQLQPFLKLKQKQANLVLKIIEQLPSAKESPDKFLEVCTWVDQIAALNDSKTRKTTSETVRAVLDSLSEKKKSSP
Protocol: (§1) A 3 mL culture of selective media (MP Biomedical) was inoculated with a single colony of the yeast screening strain and grown at 30° C. overnight. On the following day, a 50 ml YPD culture (MP Biomedical) was started with 2 ml of the overnight culture and grown at 30° C. overnight. On the following day, the cells were harvested by centrifugation at 4000 rpm. The cells were resuspended in 100 ml ice cold water and centrifuged again. The cells were then washed in 1.2 M sorbitol, followed by treatment with 2 ml of 10 mM Tris pH 8.0, 1 mM EDTA, 100 mM Lithium acetate, 10 mM DTT, 0.6M sorbitol for 30 minutes at 30° C. with shaking. The cells were recovered by centrifugation, washed in 40 ml 1.2M sorbitol and finally resuspended in 250 microliters of 1.2M sorbitol. 50 microliter aliquots were transferred to test tubes on ice. Up to 5 microliters of DNA (100-500 nanograms) were added. The suspension was transferred to a 0.2 cm electroporation cuvette, on ice. Electroporation was performed with a pulse charge at 1.5 kV, 200 ohms, 25 microF (pulse time of 5 milliseconds). 1 mL YPD media (MP Biomedical) was added and the cells were allowed to recover at 30° C. for 1-2 hr. The cells were centrifuged, resuspended in 100 uL 1M sorbitol and plated on selective media lacking leucine and containing 2% galactose. The resulting yeast colonies were incubated at various temperatures ranging from 22 to 37 degrees Celsius for 7-10 days. I-CreI and meganucleases derived from it have maximal activity at or above 37 degrees Celsius. Screening was performed at a range of temperatures from 22 to 37 degrees in order to observe increases in activity at lower temperatures which are relevant to certain biological systems (eg. plant cells, plant cell cultures, etc). At that time the red/white sectoring phenotype, indicative of meganuclease activity was observed. Colonies with increased white sectoring over the parental meganuclease (indicating colonies expressing a meganuclease with increased meganuclease activity), also referred to as “hits” and sometimes completely white, were isolated for further analysis.

LIG3-4(A4) = biological target: T2, LIG3-4(A4) (artificial)
T2 chain: T1 chain with K71G, I132V, K258G, I319V
Protocol: as §1

LIG3-4(B24) = biological target: T3, LIG3-4(B24) (artificial)
T3 chain: T1 chain with S22C, K71G, K258G
Protocol: as §1

LIG3-4(A6) = biological target: T4, LIG3-4(A6) (artificial)
T4 chain: T1 chain with K71G, I132V, K258G, F281Y
Protocol: as §1

LIG3-4(B55) = biological target: T5, LIG3-4(B55) (artificial)
T5 chain: T1 chain with S22C, K71G, S209C
Protocol: as §1

B1: LIG3-4 recognition site (dsDNA)
DNA 1: ATATACCTCACACGTACGCGTA
DNA 2: TACGCGTACGTGTGAGGTATAT
Q: What does the source list for B1?
A: activity (LIG3-4(B36)): 4 score 0-4; activity (LIG3-4(A4)): 3.5 score 0-4; activity (LIG3-4(B24)): 4 score 0-4; activity (LIG3-4(A6)): 3 score 0-4; activity (LIG3-4(B55)): 4 score 0-4
